We go through 75 variants from doi:10.1101/2021.08.20.457142.

Sequences and labels used below:
B1: MKK6 D-site peptide / p38-alpha (MAPK14) L195A, full length (parent complex)
chain 1: SQSKGKKRNPGLKIPKEAFEQP
chain 2: MSQERPTFYRQELNKTVWEVPERYQNLSPVGSGAYGSVCAAFDTKTGHRVAVKKLSRPFQSIIHAKRTYRELRLLKHMKHENVIGLLDVFTPARSLEEFNDVYLVTHLMGADLNNIVKCQKLTDDHVQFLIYQILRGLKYIHSADIIHRDLKPSNLAVNEDCELKILDFGLARHTDDEMTGYVATRWYRAPEIMANWMHYNQTVDIWSVGCIMAELLTGRTLFPGTDHIDQLKLILRLVGTPGAELLKKISSESARNYIQSLAQMPKMNFANVFIGANPLAVDLLEKMLVLDSDKRITAAQALAHAYFAQYHDPDDEPVAEPYDQSFESRDFLIDEWKSLTYDEVISFVPPPLDQEEMES
B2: MKK7 D-site peptide (second D-site) / JNK1 alpha1 (MAPK8 isoform 1) L198A, full length (parent complex)
chain 1: SQPQRPRPTLQLPLANEAFEQP
chain 2: MSRSKRDNNFYSVEIGDSTFTVLKRYQNLKPIGSGAQGIVCAAYDAILERNVAIKKLSRPFQNQTHAKRAYRELVLMKCVNHKNIIGLLNVFTPQKSLEEFQDVYIVMELMDANLCQVIQMELDHERMSYLLYQMLCGIKHLHSAGIIHRDLKPSNIVVKSDCTLKILDFGLARTAGTSFMMTPYVVTRYYRAPEVIAGMGYKENVDLWSVGCIMGEMVCHKILFPGRDYIDQWNKVIEQLGTPCPEFMKKLQPTVRTYVENRPKYAGYSFEKLFPDVLFPADSEHNKLKASQARDLLSKMLVIDASKRISVDEALQHPYINVWYDPSEAEAPPPKIPDKQLDEREHTIEEWKELIYKEVMDLEERTKNGVIRGQPSPLAQVQQ

Variants of B1 are the subject of the first test.
chain 1 K7G: the screen value was 1.17 Z-score of the enrichment rate within one screen of 711 sequences. Take chain 1 K7D: the screen value was -0.807 Z-score of the enrichment rate within one screen of 711 sequences.

For the variant chain 1 K7V, the screen value was 0.633 Z-score of the enrichment rate within one screen of 711 sequences.

Turning to chain 1 R8A, chain 1 K16A, the screen value is -0.602 Z-score of the enrichment rate within one screen of 711 sequences. For chain 1 P10L, the screen value was 1.79 Z-score of the enrichment rate within one screen of 711 sequences. For chain 1 P10M, the screen value is 0.502 Z-score of the enrichment rate within one screen of 711 sequences. The same measure, in the same setting: then chain 1 P10Y, with 0.723 Z-score of the enrichment rate within one screen of 711 sequences. Take chain 1 P10S: the screen value was 0.158 Z-score of the enrichment rate within one screen of 711 sequences. chain 1 P10C: the screen value was 0.201 Z-score of the enrichment rate within one screen of 711 sequences. As to chain 1 K6A, the screen value was 0.653 Z-score of the enrichment rate within one screen of 711 sequences. As to chain 1 K6V, the screen value is 0.748 Z-score of the enrichment rate within one screen of 711 sequences. Same read-out and setting: then chain 1 K6R, with 1.9 Z-score of the enrichment rate within one screen of 711 sequences; and chain 1 K6D, with 0.0134 Z-score of the enrichment rate within one screen of 711 sequences. As for chain 1 K6P, the screen value was 0.527 Z-score of the enrichment rate within one screen of 711 sequences. For chain 1 K6E, the screen value is -0.606 Z-score of the enrichment rate within one screen of 711 sequences. The same measure, in the same setting: to chain 1 L12T belongs -1.06 Z-score of the enrichment rate within one screen of 711 sequences; to chain 1 L12A, -1.31 Z-score of the enrichment rate within one screen of 711 sequences; to chain 1 L12V, -0.424 Z-score of the enrichment rate within one screen of 711 sequences. As for chain 1 L12N, the screen value was -1.37 Z-score of the enrichment rate within one screen of 711 sequences. chain 1 L12F: the screen value is -0.853 Z-score of the enrichment rate within one screen of 711 sequences.

chain 1 L12H: the screen value is -1 Z-score of the enrichment rate within one screen of 711 sequences. Same read-out and setting: to chain 1 L12K belongs -1.3 Z-score of the enrichment rate within one screen of 711 sequences.

In the case of chain 1 L12G, the screen value is -0.861 Z-score of the enrichment rate within one screen of 711 sequences. Regarding chain 1 G5A, chain 1 P15A, the screen value is 2.65 Z-score of the enrichment rate within one screen of 711 sequences. Same read-out and setting: then chain 1 N9A, chain 1 G11A, with 1.02 Z-score of the enrichment rate within one screen of 711 sequences. For chain 1 G5A, chain 1 K7A, the screen value was 0.268 Z-score of the enrichment rate within one screen of 711 sequences. Consider chain 1 N9S, for which the screen value is 0.752 Z-score of the enrichment rate within one screen of 711 sequences. With chain 1 N9P, the screen value is 1.77 Z-score of the enrichment rate within one screen of 711 sequences. chain 1 N9K: the screen value was 1.98 Z-score of the enrichment rate within one screen of 711 sequences. As to chain 1 N9H, the screen value is 1.51 Z-score of the enrichment rate within one screen of 711 sequences. For the variant chain 1 N9T, the screen value is 0.467 Z-score of the enrichment rate within one screen of 711 sequences.

In another test the parent is B2.
Turning to chain 1 T9A, chain 1 L10A, the screen value was -0.519 Z-score of the enrichment rate within one screen of 711 sequences.

As for chain 1 A15N, the screen value was 1.48 Z-score of the enrichment rate within one screen of 711 sequences. Regarding chain 1 A15D, the screen value is 1.08 Z-score of the enrichment rate within one screen of 711 sequences. For chain 1 L10A, chain 1 Q11A, the screen value was -0.534 Z-score of the enrichment rate within one screen of 711 sequences. Consider chain 1 Q11A, for which the screen value is 1.44 Z-score of the enrichment rate within one screen of 711 sequences. For chain 1 Q11P, the screen value is 0.901 Z-score of the enrichment rate within one screen of 711 sequences. The same measure, in the same setting: then chain 1 Q11S, with 1.45 Z-score of the enrichment rate within one screen of 711 sequences; and chain 1 Q11F, with 2.16 Z-score of the enrichment rate within one screen of 711 sequences; and chain 1 R5L, with 0.573 Z-score of the enrichment rate within one screen of 711 sequences. chain 1 R5S: the screen value is 0.06 Z-score of the enrichment rate within one screen of 711 sequences.

For chain 1 R5Y, the screen value is 0.459 Z-score of the enrichment rate within one screen of 711 sequences. Same read-out and setting: then chain 1 P3A, chain 1 T9A, with 0.956 Z-score of the enrichment rate within one screen of 711 sequences; and chain 1 P13G, with 0.542 Z-score of the enrichment rate within one screen of 711 sequences; and chain 1 P13M, with 1.22 Z-score of the enrichment rate within one screen of 711 sequences. Regarding chain 1 P13K, the screen value was 1.72 Z-score of the enrichment rate within one screen of 711 sequences. The same measure, in the same setting: to chain 1 P6A, chain 1 L14A belongs 0.556 Z-score of the enrichment rate within one screen of 711 sequences; to chain 1 P3A, chain 1 L12A, -0.854 Z-score of the enrichment rate within one screen of 711 sequences. In the case of chain 1 P6A, chain 1 L10A, the screen value was -0.724 Z-score of the enrichment rate within one screen of 711 sequences. For the variant chain 1 Q4A, chain 1 N16A, the screen value was 1.68 Z-score of the enrichment rate within one screen of 711 sequences.

As for chain 1 P8E, the screen value is 0.296 Z-score of the enrichment rate within one screen of 711 sequences. For the variant chain 1 P8A, the screen value is 0.456 Z-score of the enrichment rate within one screen of 711 sequences. As for chain 1 L14H, the screen value is 0.415 Z-score of the enrichment rate within one screen of 711 sequences. As to chain 1 L14P, the screen value was 0.76 Z-score of the enrichment rate within one screen of 711 sequences. Regarding chain 1 L14Y, the screen value was 0.328 Z-score of the enrichment rate within one screen of 711 sequences. Turning to chain 1 L12A, chain 1 L14A, the screen value was -0.584 Z-score of the enrichment rate within one screen of 711 sequences. With chain 1 L10C, the screen value is -0.173 Z-score of the enrichment rate within one screen of 711 sequences.

On to chain 1 P6A, chain 1 P13A, for which the screen value was 0.914 Z-score of the enrichment rate within one screen of 711 sequences. chain 1 P6A, chain 1 R7A: the screen value is 0.187 Z-score of the enrichment rate within one screen of 711 sequences.

As for chain 1 P6N, the screen value is 1.28 Z-score of the enrichment rate within one screen of 711 sequences.

Regarding chain 1 P6M, the screen value is 1.27 Z-score of the enrichment rate within one screen of 711 sequences.

With chain 1 P6K, the screen value was 1.52 Z-score of the enrichment rate within one screen of 711 sequences.

Consider chain 1 P6Y, for which the screen value was 0.933 Z-score of the enrichment rate within one screen of 711 sequences. In the case of chain 1 P3A, chain 1 Q11A, the screen value is 1.08 Z-score of the enrichment rate within one screen of 711 sequences. With chain 1 Q4C, the screen value is 1.41 Z-score of the enrichment rate within one screen of 711 sequences. On the same count and under the same terms, to chain 1 Q4V belongs 1.56 Z-score of the enrichment rate within one screen of 711 sequences. As to chain 1 Q4D, the screen value was 0.92 Z-score of the enrichment rate within one screen of 711 sequences. On to chain 1 Q4K, for which the screen value is 1.91 Z-score of the enrichment rate within one screen of 711 sequences. As for chain 1 L12Q, the screen value is -0.624 Z-score of the enrichment rate within one screen of 711 sequences. On the same count and under the same terms, to chain 1 L12G belongs -0.442 Z-score of the enrichment rate within one screen of 711 sequences; to chain 1 N16S, 1.15 Z-score of the enrichment rate within one screen of 711 sequences. Take chain 1 N16Q: the screen value is 1.61 Z-score of the enrichment rate within one screen of 711 sequences. In the case of chain 1 P3Q, the screen value is 1.24 Z-score of the enrichment rate within one screen of 711 sequences. Turning to chain 1 P3W, the screen value is 1.63 Z-score of the enrichment rate within one screen of 711 sequences. As to chain 1 T9A, chain 1 P13A, the screen value is 0.848 Z-score of the enrichment rate within one screen of 711 sequences.
